Ends that are not written are not given here.
Key:
[1] = In vitro stability in dog plasma; format: in vitro ADME; details: after 30 minutes of incubation, 37° C., 1.6 μM
Description: (§1) Stability of Compound 7 (human variant) in physiological buffer (Hanks Balanced Salt Solution, HBSS) and in plasma was evaluated in comparison with Compound 3.
(§2) Compound stability was defined as % recovery of the compound after 5 min, 15 min, and 30 min of incubation in the presence of corresponding plasma.
(§3) 200 μL of 1.6 μM Compound 3 and Compound 7 solutions were incubated in the matrix (Hank's Balanced Salt Solution or plasma) at 37° C. for 0, 5, 15, or 30 minutes. The incubation was followed by addition of 200 μL acetonitrile, vortexing and subsequent acidification with 45 μL of pure acetic acid. After additional vortexing, the resulting mixture was centrifuged for 5 min at 14,000 rpm and the supernatant was collected for analysis.
(§4) Determination of the Compound 3 or Compound 7 levels in the supernatant samples prepared as described above was performed using an LC-MS/MS method as follows: 40 μL of 5 μM Compound 7 in 10% acetic acid aqueous solution was added to 160 μL of the supernatant. […]
(§5) Percentages of Compound 3 and Compound 7 recovery after 0 minutes (at the start of the experiment), 5 minutes, 15 minutes, and 30 minutes incubation time points were calculated by dividing the corresponding peak areas by the peak area obtained from the samples prepared with no incubation (0 minutes of incubation time). […]

[2] = In vitro stability in physiological buffer (Hanks Balanced Salt Solution, HBSS); format: physicochemical; details: 30 minutes incubation, 37° C., 1.6 μM
Description: as §1, §2, §3, §4, §5

[3] = Self-assembly by negative stain transmission electron microscopy; format: physicochemical; details: for colloidal structures from self-assembly in isotonic saline (TEM): 20 mg/mL in 0.9% (w/v) sodium chloride; for colloidal structures from self-assembly in water (TEM): 20 mg/mL in sterile water
Description: The patterns of self-assembly of Compound 7 and Compound 3 were analyzed by negative stain transmission electron microscopy.
Compound 3 and Compound 7 were dissolved in sterile water or in 0.9% (w/v) sodium chloride in sterile water to obtain a 20 mg/mL solution. Formvar/carbon coated grids were exposed to […] drops of the Compound 3 or Compound 7 solutions for approximately 1 minute, blotted and then exposed to […] drops of sterile water for 10 seconds, blotted again and then stained with 2% (w/v) aqueous uranyl acetate for 30 seconds, The stained samples were exposed to […] drops of sterile water for 10 seconds and blotted dry prior to examination by transmission electron microscopy.

[4] = In vitro stability in human plasma; format: in vitro ADME; details: after 30 minutes of incubation, 37° C., 1.6 μM
Description: as §1, §2, §3, §4, §5

[5] = In vitro stability in rat plasma; format: in vitro ADME; details: after 30 minutes of incubation, 37° C., 1.6 μM
Description: as §1, §2, §3, §4, §5

In the case of “TAT-Cys-PTPRS (GRKKRRQRRRCDMAEHTERLKANDSLKLSQEYESI) [Compound 3]”, the “recovery rate in dog plasma” value [1] is reported as “low stability”, the “% recovery in HBSS” value [2] is reported as “about 42%” and the “colloidal structures from self-assembly in isotonic saline (TEM)” value [3] is reported as “amyloid-like fibrillar meshwork”. For the same substance, the “colloidal structures from self-assembly in water (TEM)” value [3] was “rod-shaped nanostructures”, the “recovery rate in human plasma” value [4] was “low stability” and the “recovery rate in rat plasma” value [5] was “low stability”.
In the case of “TAT-Cys-human PTPRS wedge domain homodimer (GRKKRRQRRRCDMAEHTERLKANDSLKLSQEYESI; also: disulfide homodimer) [Compound 7]”, the “recovery rate in dog plasma” value [1] is reported as 100%, the “% recovery in HBSS” value [2] is reported as 90% and the “colloidal structures from self-assembly in isotonic saline (TEM)” value [3] is reported as “larger-in-size helical colloidal particles”. The “colloidal structures from self-assembly in water (TEM)” value [3] was “rod-shaped nanostructures”, the “recovery rate in human plasma” value [4] was 99% and the “recovery rate in rat plasma” value [5] was 92%.

Source: patent US20260286322A1, “PROTEIN TYROSINE P[…] DOMAIN PEPTIDE DIMER FOR NERVOUS SYSTEM REPAIR” (NervGen Pharma Corp., priority 2023, published 2026)
